Reference: the supplement of paper PMC9112550, “Optimization of the antimicrobial peptide Bac7 by deep mutational scanning” (BMC Biology, 2022)

Test system: Escherichia coli TOP10
Assay: shrunken log2 fold change of peptide-encoding DNA abundance (4.5 h post-induction vs induction); higher = less antimicrobial activity (less host growth inhibition)
Conditions: time post-induction: 4.5 h; library: site-saturation at positions 5, 18, 19, 20
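Note: peptides expressed intracellularly from a pBAD plasmid library in pooled LB shake-flask culture, induced with 0.3% L-arabinose, DNA abundance read by NGS, three biological replicates, DESeq2 with apeglm shrinkage.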

Sequence	shrunken log2 fold change
RRIRFRPPRLPRPRPRPQDTPRP	-0.46
RRIRPRPPRLPRPRPRPEKMPRP	0.742
RRIRTRPPRLPRPRPRPNIVPRP	-0.192
RRIRMRPPRLPRPRPRPPRTPRP	1.46
RRIRKRPPRLPRPRPRPCMVPRP	0.309
RRIRMRPPRLPRPRPRPDWKPRP	0.0125
RRIRDRPPRLPRPRPRPNTDPRP	-0.179
RRIRNRPPRLPRPRPRPECPPRP	0.012
RRIRCRPPRLPRPRPRPGRLPRP	-0.0858
RRIRTRPPRLPRPRPRPNMGPRP	-0.0939
RRIRWRPPRLPRPRPRPEHCPRP	0.177
RRIRGRPPRLPRPRPRPEMKPRP	0.73
RRIRVRPPRLPRPRPRPKALPRP	0.0497
RRIRSRPPRLPRPRPRPHLCPRP	-0.121
RRIRIRPPRLPRPRPRPTTEPRP	0.086
RRIRRRPPRLPRPRPRPHKGPRP	0.221
RRIRRRPPRLPRPRPRPTPQPRP	1.52
RRIRGRPPRLPRPRPRPAPVPRP	0.925
RRIRRRPPRLPRPRPRPCSVPRP	0.178
RRIRLRPPRLPRPRPRPKNYPRP	-0.458
RRIRNRPPRLPRPRPRPWSAPRP	-0.304
RRIRNRPPRLPRPRPRPDGAPRP	0.0931
RRIRCRPPRLPRPRPRPLCHPRP	-0.213
RRIRSRPPRLPRPRPRPPCYPRP	-0.145
RRIRERPPRLPRPRPRPLFHPRP	-0.367

Sequence	shrunken log2 fold change
RRIRFRPPRLPRPRPRPGSEPRP	-0.0634
RRIRRRPPRLPRPRPRPYDSPRP	-0.545
RRIRWRPPRLPRPRPRPEAHPRP	0.219
RRIRGRPPRLPRPRPRPVHAPRP	0.743
RRIRLRPPRLPRPRPRPDSEPRP	0.482
RRIRPRPPRLPRPRPRPSFPPRP	-0.0649
RRIRMRPPRLPRPRPRPVAWPRP	0.213
RRIRRRPPRLPRPRPRPIMNPRP	-0.347
RRIRGRPPRLPRPRPRPQLQPRP	0.577
RRIRERPPRLPRPRPRPKGHPRP	0.092
RRIRTRPPRLPRPRPRPLQVPRP	-0.219
RRIRNRPPRLPRPRPRPSTVPRP	-0.103
RRIRARPPRLPRPRPRPWVMPRP	-0.156
RRIRVRPPRLPRPRPRPQPHPRP	0.0498
RRIRIRPPRLPRPRPRPVCRPRP	1.56
RRIRTRPPRLPRPRPRPWFHPRP	-0.362
RRIRRRPPRLPRPRPRPNFIPRP	-0.481
RRIRLRPPRLPRPRPRPWYCPRP	-0.766
RRIRIRPPRLPRPRPRPWFGPRP	-0.348
RRIRARPPRLPRPRPRPLALPRP	0.668
RRIRTRPPRLPRPRPRPMPMPRP	0.467
RRIRPRPPRLPRPRPRPFLAPRP	0.0316
RRIRCRPPRLPRPRPRPEPYPRP	-0.364
RRIRHRPPRLPRPRPRPPYRPRP	-0.399
RRIRVRPPRLPRPRPRPELQPRP	-0.0355

Sequence	shrunken log2 fold change
RRIRFRPPRLPRPRPRPNYFPRP	-0.383
RRIRQRPPRLPRPRPRPCWCPRP	-0.0854
RRIRYRPPRLPRPRPRPWKHPRP	-0.0695
RRIRHRPPRLPRPRPRPVRMPRP	0.246
RRIRGRPPRLPRPRPRPGIAPRP	0.864
RRIRFRPPRLPRPRPRPRYPPRP	-0.38
RRIRHRPPRLPRPRPRPECDPRP	-0.0404
RRIRKRPPRLPRPRPRPQLQPRP	0.199
RRIRARPPRLPRPRPRPARGPRP	0.774
RRIRMRPPRLPRPRPRPWLSPRP	0.0302
RRIRFRPPRLPRPRPRPKMIPRP	-0.618
RRIRKRPPRLPRPRPRPVYCPRP	-0.199
RRIRNRPPRLPRPRPRPGQMPRP	0.00315
RRIRMRPPRLPRPRPRPHVLPRP	-0.00145
RRIRERPPRLPRPRPRPHDIPRP	-0.0102
RRIRDRPPRLPRPRPRPQGMPRP	-0.00277
RRIRVRPPRLPRPRPRPCKHPRP	-0.483
RRIRRRPPRLPRPRPRPPYTPRP	0.00247
RRIRNRPPRLPRPRPRPKHYPRP	-0.399
RRIRCRPPRLPRPRPRPQTIPRP	-0.516
RRIRSRPPRLPRPRPRPDFSPRP	0.0706
RRIRVRPPRLPRPRPRPYPKPRP	-0.858
RRIRIRPPRLPRPRPRPVQNPRP	-0.425
RRIRVRPPRLPRPRPRPWSQPRP	-0.219
RRIRWRPPRLPRPRPRPRYNPRP	-0.396

Sequence	shrunken log2 fold change
RRIRIRPPRLPRPRPRPSTIPRP	-0.361
RRIRMRPPRLPRPRPRPAKMPRP	0.134
RRIRVRPPRLPRPRPRPGANPRP	0.222
RRIRARPPRLPRPRPRPTFFPRP	0.197
RRIRRRPPRLPRPRPRPQFPPRP	0.133
RRIRWRPPRLPRPRPRPGTQPRP	0.216
RRIRERPPRLPRPRPRPILSPRP	-0.316
RRIRERPPRLPRPRPRPFYNPRP	-0.306
RRIRGRPPRLPRPRPRPAPSPRP	0.806
RRIRCRPPRLPRPRPRPACEPRP	0.112
RRIRERPPRLPRPRPRPWSAPRP	-0.00234
RRIRPRPPRLPRPRPRPRAEPRP	0.526
RRIRNRPPRLPRPRPRPFLFPRP	-0.301
RRIRFRPPRLPRPRPRPIGPPRP	0.0274
RRIRDRPPRLPRPRPRPKIAPRP	-0.0493
RRIRPRPPRLPRPRPRPPNFPRP	0.0501
RRIRVRPPRLPRPRPRPLAAPRP	0.152
RRIRRRPPRLPRPRPRPMPPPRP	0.676
RRIRLRPPRLPRPRPRPERVPRP	0.0357
RRIRKRPPRLPRPRPRPKWYPRP	-0.235
RRIRNRPPRLPRPRPRPLRLPRP	0.357
RRIRPRPPRLPRPRPRPNAIPRP	-0.0755
RRIRCRPPRLPRPRPRPYWYPRP	-0.553
RRIRRRPPRLPRPRPRPMGNPRP	0.0273
RRIRVRPPRLPRPRPRPDRVPRP	-0.285

Sequence	shrunken log2 fold change
RRIRLRPPRLPRPRPRPPWCPRP	0.402
RRIRKRPPRLPRPRPRPRMDPRP	0.236
RRIRSRPPRLPRPRPRPWFLPRP	-0.565
RRIRWRPPRLPRPRPRPCRHPRP	0.0955
RRIRLRPPRLPRPRPRPTGGPRP	0.621
RRIRFRPPRLPRPRPRPDDGPRP	-0.0366
RRIRSRPPRLPRPRPRPAPQPRP	0.461
RRIRTRPPRLPRPRPRPDCMPRP	-0.137
RRIRHRPPRLPRPRPRPFQTPRP	-0.183
RRIRFRPPRLPRPRPRPVESPRP	-0.0712
RRIRGRPPRLPRPRPRPWDTPRP	0.194
RRIRSRPPRLPRPRPRPNILPRP	-0.61
RRIRCRPPRLPRPRPRPICNPRP	-0.579
RRIRERPPRLPRPRPRPCLVPRP	0.0202
RRIRHRPPRLPRPRPRPTAAPRP	0.518
RRIRCRPPRLPRPRPRPMKGPRP	0.0113
RRIRERPPRLPRPRPRPRMRPRP	0.506
RRIRKRPPRLPRPRPRPMVYPRP	-0.0451
RRIRFRPPRLPRPRPRPNKLPRP	-0.615
RRIRSRPPRLPRPRPRPEDCPRP	0.0867
RRIRNRPPRLPRPRPRPKIHPRP	-0.719
RRIRRRPPRLPRPRPRPWEIPRP	-0.0233
RRIRGRPPRLPRPRPRPIAAPRP	2.9
RRIRWRPPRLPRPRPRPDYGPRP	-0.202
RRIRGRPPRLPRPRPRPTYFPRP	0.0176
